± gives the uncertainty stated by the source.

This series in a line: amyloid nucleation score (Sup35N fusion, yeast selection) (log enrichment); library NNK1; higher = more nucleation; inactive = no reads after selection. In short, it runs like this: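 Random libraries were run with three technical output replicates. In each, psi-negative yeast expressing Sup35N fused to peptides of 20 random codons were induced 24 hours with 100 μM copper sulfate and grown 7 days at 30°C on medium lacking adenine and uracil, and input and output plasmid inserts were Illumina-sequenced. The nucleation score is the DiMSum log enrichment of output over input reads, centred on the mode score of non-aggregating sequences, and sequences under 100 input reads were excluded.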
ECTCSIK showed an amyloid nucleation score of 0.03 ± 0.22. Consider FLLWKGTIDIMRWHVFASN, for which the amyloid nucleation score is -0.847 ± 0.79.

CHEQHSASREYVDREYGKYS: the amyloid nucleation score result is “inactive”. The value for CVWVKGHSRCLTTSLVRRSR was -0.022 ± 0.42; that for NSYQSSFSEFAASICFDTAE was -2.5 ± 2.4; that for GVRCRLLRIPFVSISRSGWR was 0.743 ± 0.58.

Take VYCVCYLWLKVVHKSLDTLS: the amyloid nucleation score was 2.23 ± 0.079. The value for SQIDYNDSCWNLGNP was 0.164 ± 0.39.

As for VKKRGDQLSLCWCLPRDLLL, the amyloid nucleation score stood at 0.612 ± 0.59. The value for MSFDGVEYRTCNVYVSVTWG was -0.133 ± 0.77; that for GGTGMVGRDANTSFIFWDIV was -0.099 ± 0.36. The value for GLGLHWSEASFRLRMDRRFA was 3.79 ± 0.069; that for QRFWYTGFGSVPIQDIEVGI was 0.328 ± 0.32. In the case of MRWIVWYVIS it was -0.859 ± 1.4. As to FITRRSLGCRFPKPKSLRIN, the amyloid nucleation score was -0.012 ± 0.4. As to LLALRPASNKWNAYQTLTEP, the amyloid nucleation score is -0.462 ± 0.57.

Regarding SVYRSVRGNRCWGLKIIMPG, the amyloid nucleation score was -0.101 ± 1.1. The value for NCFIKDAMVMSSRMYSGNMI was “inactive”. With VVGRGKLQCVLFRHDTAYRV, the amyloid nucleation score is -0.058 ± 0.28.

On to VTPGRLQRLVM, for which the amyloid nucleation score was -1.39 ± 0.58.

Regarding LCFMILNGGRQSQAQKDSYV, the amyloid nucleation score turned out to be 0.086 ± 0.4. In the case of VRLGMRQMCYQKNRTCQVYF it was -0.173 ± 0.62; in that of CQIFGNFWWKCIVGCRQIRF, “inactive”.

Substance RTVPTRWACVLVSGVWRYGA came in with an amyloid nucleation score of 0.504 ± 0.46. The value for GGLSNSLSTAVQDW was -0.995 ± 0.61; that for ASFHNVQIGAYNMCKMNKGC was 1.75 ± 0.34. In the case of IFCAPLTTSQIALRVYNRRL it was 0.727 ± 0.88; in that of IATFGVTMSNSWT, 2.84 ± 0.13; in that of MVSPPLNTSIYLIPCSSLCD, -0.407 ± 0.25.

As for VLFFKVIIYVALRMVLMEKD, the amyloid nucleation score is -1.18 ± 1. In the case of SNWLFWFIKMGQFQDSICYA it was -0.616 ± 1.4; in that of FWGWLRPWLLKSSEDPLKLE, -0.617 ± 0.57. For WHFFVKKRVRCDSHSSMQWN, the amyloid nucleation score was -0.677 ± 0.69. In the case of NKLEYPHNNACATCC it was 1.09 ± 0.84; in that of IKMSSRYFMLGTLLSPGLEV, “inactive”.

In the case of ARWLIEAVWSMYRFHYIGKR, the amyloid nucleation score is -0.722 ± 0.52.

Take RGMKCIMSSKDVGS: the amyloid nucleation score was -1.13 ± 2.4. The value for IWGDKIHGFHGVIMMQSGMV was -0.762 ± 0.71; that for TFHAHTLWQGAQVIRQSETR was 0.053 ± 0.47. In the case of VIILNVVFNLLYEKAFFFR it was 0.278 ± 0.68; in that of AYKVSRKLKVLRFDFIEV, -0.477 ± 0.71; in that of MNMSKRFLRKLCERSRMPNR, 0.21 ± 0.61. The value for SNSLLQGVTIWPNYPLCGNL was 0.464 ± 0.53; that for RRHLGRCTRSKLFNPLR was 0.101 ± 0.54. In the case of LSRVKSR, the amyloid nucleation score is 1.29 ± 0.62. In the case of ASDMSCMQSNSYFNLCTYTM it was 5.28 ± 0.064; in that of NFNCLVTDAFYFRGWKCLDR, 4.9 ± 0.12; in that of SIGVFNCNCHRNYEHRYRYM, 1.22 ± 0.15. In the case of RCGGSRDSACLANWIQFTMQ it was 4.67 ± 0.064. YSHYNGTVAYRWEPQ: the amyloid nucleation score was 0.901 ± 0.47. The value for ELTNTFTV was -0.335 ± 0.37.

As for AYIKNQ, the amyloid nucleation score is -0.305 ± 0.47.

Consider IATYCYLFSCWFIYVLT, for which the amyloid nucleation score was found to be 0.992 ± 0.84. The value for IGESVHKLSFWCDSGECF was 0.073 ± 0.31.

As for MEKLGAPYRFREPGMFVRFF, the amyloid nucleation score is -1.1 ± 0.62. In the case of FYAVVFYYDTDSAARCRFC it was 6.32 ± 0.075; in that of HSWCMSSSSIKFVCLENDLL, 6.804 ± 0.061; in that of FYSFTGGAVGLGLC, 1.11 ± 0.49.

As for TFSRRASDFEVNV, the amyloid nucleation score was -1.25 ± 2.7. The value for CHSTGGT was -0.468 ± 1.9; that for SLQINMTSSICLVST was 3.35 ± 0.07; that for IYVRGRMRVMGARH was -1.26 ± 1.5.

In the case of GTSLRSGWRYCEFTRRSCLV, the amyloid nucleation score came to 0.068 ± 0.6. In the case of RSCKLWY it was -0.204 ± 0.85; in that of YGFCGLMHSNSIHYSNMQSR, 0.685 ± 0.48.

KMRKIDAR: the amyloid nucleation score was determined as 2.63 ± 0.11. In the case of VRSPNIEYDFCRVLPTLTGE it was 0.505 ± 1.4; in that of ISYRNLIRFCFSPYAKLWRF, 0.69 ± 0.52. In the case of ATRFTR, the amyloid nucleation score was 0.282 ± 0.5. The value for YTASMTIFLDLLP was 2.07 ± 0.15; that for RFRRSLLMYYGTTSVGLLRP was 0.664 ± 1.2; that for VVDLVHVCSFFTFYVCATLL was 1.66 ± 0.6.

As to AIGSCWTGLRNGT, the amyloid nucleation score worked out at 0.734 ± 1.1. In the case of GVVGNTHQVPNRGRRSRFLL it was -1.54 ± 1.7; in that of GTTLTDSVCYRGLNFPRLY, -0.435 ± 1.9; in that of LKSWVLYYFM, 1.03 ± 0.35. In the case of CVWMVETRQWREGFKCMPER it was 0.532 ± 0.97.

For AMCCYGYVCCFYGSEVG, the amyloid nucleation score was determined as 5.51 ± 0.078.

GISFP: the amyloid nucleation score is -0.737 ± 0.31. The value for TFSMSQNWVLNCAYLVIGYH was 4 ± 0.14.

On to IAMKPENK, for which the amyloid nucleation score was -0.997 ± 0.57.

Consider LYFSTYVFLASTSGHLSRFD, for which the amyloid nucleation score is -1.36 ± 2.1. As to LESQNHTFLRFIPKAALRIL, the amyloid nucleation score was determined as 0.067 ± 0.47. In the case of YIKMIR it was -0.759 ± 0.97; in that of EYLCLI, 0.147 ± 0.45. The substance IFMRSAERGMRVLLEDDCRT gave an amyloid nucleation score of 0.256 ± 0.61.

With DIFYLCFRVYSEVGLSINVV, the amyloid nucleation score was -0.529 ± 0.84. The value for SLDVILVPMCTFCRGMAYCS was 0.457 ± 1.1. On to DLIWNSSFVRLNVTNPLMFR, for which the amyloid nucleation score result is “inactive”. The value for PAQEA was 0.126 ± 0.45; that for HGINET was 0.357 ± 0.48; that for LYLAQFQGNGDLFSVPPCKV was 0.16 ± 0.64. In the case of TYYTVTEISHVGWTYFGYVR it was -0.151 ± 0.64; in that of HAKNSRIYSWLFLCSIKWG, 0.396 ± 0.3. As to GCGGTGAFTVQGKRQFIAGR, the amyloid nucleation score is -0.031 ± 0.27. In the case of FFGVTYREYTWS it was “inactive”. In the case of FSRKINVYG it was -0.396 ± 0.66; in that of PPLVHSAHYVMKILKSCN, -1.5 ± 2.7. In the case of RSLALEKLCSWSV it was -1.38 ± 2.7; in that of HMLWNNVRIF, 0.09 ± 0.6. With SLNFT, the amyloid nucleation score was -0.337 ± 0.31.

For the substance RSYGLAFGYFHNHVRSFARV, the amyloid nucleation score is -0.735 ± 0.81. In the case of DVMAVCGIGRKYLIWYSCVR it was -1.54 ± 0.79. Regarding YELDWWSLLQE, the amyloid nucleation score amounted to 1.12 ± 0.4.

With CSAYDQVWDTNGRVCFA, the amyloid nucleation score was -0.003 ± 0.41.

In the case of IFHGWVTGCCLVDNLLFYCT, the amyloid nucleation score was found to be 5.42 ± 0.1. DGVVCMNAVCFQTMYVMYWL returned an amyloid nucleation score of 6.69 ± 0.08.

As for NCTKSSWYGCYT, the amyloid nucleation score is -0.287 ± 0.35. In the case of SNGLGMVRDR, the amyloid nucleation score is -0.172 ± 0.67. Consider RCYSFRSHRRNFNIYVLSKW, for which the amyloid nucleation score entry was “inactive”.

Take IYGIMLG: the amyloid nucleation score result was “inactive”.

As to VVRWSFDNAYSSSLDNLIVI, the amyloid nucleation score is -0.209 ± 0.34. In the case of AKSKVLWESSVRQRS it was -0.04 ± 0.62. In the case of TKFIE it was 1.2 ± 0.37; in that of GAFCWRLVGEGLFVALDVCE, 0.458 ± 0.87; in that of IQNDCILVNSVSWYCVSGPP, 5.29 ± 0.064. In the case of HLMDSSYGSGSGCSTKTSCV it was 0.061 ± 0.28.

The substance NVYLMKLDWTIKMWWA came in with an amyloid nucleation score of 0.638 ± 0.69. The value for GVLSIVVKSR was -2.2 ± 1.7; that for NTSEIPCCVIQEWFYCTFYL was 7.503 ± 0.044. The value for YNRDRECWRIS was 1.17 ± 0.53.

In the case of CDKGPGCWVRMKQPGRLQMG, the amyloid nucleation score was determined as 3.46 ± 0.076.

On to DFGLYLNNFCNGMHSFDLFN, for which the amyloid nucleation score was -0.378 ± 0.19. The value for LSDRIAYVVRGC was 0.137 ± 0.43; that for MCFSVG was -0.148 ± 0.4. The value for GKSKAAQFN was -0.318 ± 0.31. In the case of HLINLSDEIQYSYCNKRMVS it was “inactive”. Regarding GVWDGKRSYGSLQSWAFVPE, the amyloid nucleation score was -0.138 ± 0.41. On to HFPSHLVLRETERFKQLHCG, for which the amyloid nucleation score was 0.374 ± 0.62. In the case of PDRRQSN it was “inactive”; in that of CILVARKAVLNCGGWKRSVR, 6.27 ± 0.067. The value for SGKTALNSGSFKFLTSSICG was 0.224 ± 1.4. The value for TWSTGAMPML was -0.344 ± 0.84. As to MAEINYWTFSLVLELSARCV, the amyloid nucleation score was -1.07 ± 1.2. In turn, CDRAIPLSIHTELMYRRSRG yielded an amyloid nucleation score of 1.11 ± 0.38. In the case of QGYASLGTQRTRPGYGKFGE it was 0.382 ± 0.27.

Consider IGDRKMSY, for which the amyloid nucleation score came to 0.145 ± 0.71.

On to VWKDS, for which the amyloid nucleation score was -0.285 ± 0.65.

As to KGTCCPPLPVILDIMEDSSR, the amyloid nucleation score is -0.227 ± 0.38. In the case of RACLQRWPNMRITCC it was -0.005 ± 1.2; in that of KMYLLRIQ, 0.661 ± 0.82.

(Values after the supplement of paper PMC12042874.)
